Reference: patent US20130177579A1 (BIOALLIANCE C V, published 2013)

B1: antibody 122-72 (antibody, V domains shown)
VH: EVQLVESGGGLVQPKGSLKLSCAASGFTFNTYAMNWVRQAPGKGLEWVARIRSKSNNYATYYADSVKDRFTISRDDSQSMLYLQMNNLKTEDTAMYYCVAYGSRNYWGQGTTLTVSS
VL: DIVMTQSPSSLTVTAGEKVTMSCKSSQSLLNSGNQKNYLTWYQQKPGQPPKLLIYWASTRESGVPDRFTGSGSGTDFTLTISSVQAEDLAVYYCQNDYSYPYTFGGGTKLEIKR
notes: Mouse IgM, kappa from a hybridoma; tested as hybridoma culture supernatant; Antibody 60-43 is said to have the same CDRs
B2: antibody 6-90 (antibody, mouse IgM, V domains shown)
VH: EVELQQFGIEMVKPGASVKISCKASGYIFTDYHMDWVRQSHGKSLEWIGDIDPKYDRVTYNQKFKGKASLTADKSSSTAYMELRSLTSEDTAVYYCAKTGAYGDYLAYWGQGTLVTVSA
VL: DLVMTQTPLSLPVSLGDQASISCRSSQSLVHSDGNTYFYWYLQKPGQSPKLLIYKVSNRFSGVPDRFSAGGSGTYFTLKISRVEAEDLGVYFCSQTTHFPPTFGGGTKLEIKR
notes: Mouse IgM, kappa from a hybridoma; tested as hybridoma culture supernatant
B3: antibody 55-31 (antibody, mouse IgM, V domains shown)
VH: QVQLQQPGAELVKPGTSVKLSCKASGYNFTSYWINWVKLRPGQGLEWIGDIYPGSGSTNYNEKFKSKATLTVDTSSSTAYMQLSSLASEDSALYYCARSAYRYDWFAYWGQGTLVTVSA
VL: DIQMTQSPASLSVSVGETVTITCRASENIYSNLAWYQQKQGKSPQLLVYAATNLADGVPSRFSGSGSGTQYSLKINSLQSEDFGSYYCQHFWGTPYTFGGGTKLEIKR
notes: as for B2

target: T1, human transferrin receptor expressed by normal human cells (RBC, PMN, lymphocytes, monocytes, platelets, … (human, UniProt P02786 1-760)); test: FACS, RBC, donor D102, 1x
T1 construct: The assay is whole-cell FACS on normal donor cells; also called TfR on normal cells
Experimental: (§1) The hyper-immuned serum (Hyp-serum) or the corresponding cell marker antibodies for certain cell types were included as positive controls.
(§2) 1×10⁵ cells were seeded in each well of a v-bottomed 96-well plate and incubated with 50 μl of hybridoma culture supernatant at 1× and 10× dilution, or isotype control antibody mouse IgM, κ (BD™, Cat. No. 557275) at concentration of 1 μg/ml. A 300× dilution of human cell hyper-immune serum was used as binding positive control for all cell types. PE-conjugated anti-human CD41a (Southern Biotech™, Cat. No. 9391-09) was used as a positive control for staining human platelets. Anti-sialyl Lewis x antibody (Millipore™, Cat. No. MAB2096) was used as a positive control for staining human PMN. Anti-human CD31 (Hycult™, Cat. No. HM2039) was used as a positive control for staining HUVEC. After 30 minutes incubation at 4° C., cells were washed twice with 200 μl FACS buffer (1×PBS containing 1% FBS), stained with 50 μl of 1 μg/ml goat F(ab′)2-anti-mouse IgG(H+L)-PE (Southern Biotech™, Cat. No. 1032-09) or 1 μg/ml goat F(ab′)2-anti-mouse IgM(H+L)-PE (Southern Biotech™, Cat. No. 1022-09) in FACS buffer. After 30 minutes of incubation at 4° C., cells were washed twice with FACS buffer and analyzed by flow cytometry (BD LSR, BD Life Sciences).

T1 sequence (P02786 whole entry G142S): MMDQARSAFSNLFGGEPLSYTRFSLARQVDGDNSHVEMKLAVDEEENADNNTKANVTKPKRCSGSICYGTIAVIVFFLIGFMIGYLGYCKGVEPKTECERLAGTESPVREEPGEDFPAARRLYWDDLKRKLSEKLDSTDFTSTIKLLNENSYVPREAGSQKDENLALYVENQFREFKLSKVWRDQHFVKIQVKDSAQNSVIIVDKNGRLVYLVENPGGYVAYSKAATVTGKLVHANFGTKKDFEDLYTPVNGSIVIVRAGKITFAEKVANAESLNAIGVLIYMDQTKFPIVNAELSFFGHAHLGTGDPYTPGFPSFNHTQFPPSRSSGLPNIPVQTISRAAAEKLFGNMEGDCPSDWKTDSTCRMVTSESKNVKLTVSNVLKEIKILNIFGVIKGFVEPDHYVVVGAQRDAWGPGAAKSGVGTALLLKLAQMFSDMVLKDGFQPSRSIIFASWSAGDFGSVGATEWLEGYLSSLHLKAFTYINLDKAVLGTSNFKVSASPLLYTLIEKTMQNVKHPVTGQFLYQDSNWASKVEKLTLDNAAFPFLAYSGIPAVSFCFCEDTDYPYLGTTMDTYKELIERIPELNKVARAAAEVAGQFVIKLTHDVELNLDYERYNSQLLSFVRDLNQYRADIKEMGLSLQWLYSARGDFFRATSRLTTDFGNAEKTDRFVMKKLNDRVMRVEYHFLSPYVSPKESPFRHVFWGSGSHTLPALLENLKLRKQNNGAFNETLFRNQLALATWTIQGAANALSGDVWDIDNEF

Binder | % positive cell binding [%]
B1 | < 1
B2 | < 1
B3 | < 1

target: T1, human transferrin receptor expressed by …; test: FACS, PMN, donor D102, 1/10x
Experimental: (§3) Preparation of PBMC and PMN: The whole blood was diluted with an equal volume of PBS and mixed with 1/10 volume of 15% Dextran solution. […] After centrifugation at 2200 rpm for 15 min (rotor: SORVALL, PN11788 and centrifuge: SORVALL, RT7), PBMC concentrated in the interface, were collected and washed with large volumes of FACS buffer (2% FBS in PBS) for future use. The PMN-rich pellet was collected, from which residual RBC was removed by hypotonic lysis in 0.2% NaCl.
as §2

Binder | % positive cell binding [%]
B1 | 1
B2 | 1
B3 | 1

target: T1, human transferrin receptor expressed by …; test: FACS, RBC, donor D014, 1x
Experimental: as §1, §2

Binder | % positive cell binding [%]
B1 | 1
B2 | 1
B3 | 1

target: T1, human transferrin receptor expressed by …; test: FACS, RBC, donor D005, 1x
Experimental: as §1, §2

Binder | % positive cell binding [%]
B1 | < 1
B2 | < 1
B3 | < 1

target: T1, human transferrin receptor expressed by …; test: FACS, monocytes, donor D016, 1/10x
Experimental: as §1, §2

Binder | % positive cell binding [%]
B1 | 1
B2 | < 1
B3 | < 1

target: T1, human transferrin receptor expressed by …; test: FACS, platelets, donor D016, 1x
Experimental: as §1, §2

Binder | % positive cell binding [%]
B1 | < 1
B2 | < 1
B3 | < 1

target: T1, human transferrin receptor expressed by …; test: FACS, RBC, donor D102, 1/10x
Experimental: as §1, §2

Binder | % positive cell binding [%]
B1 | < 1
B2 | < 1
B3 | < 1

target: human transferrin receptor expressed by nonhematopoietic cancer cells (human) (UniProt P02786); test: FACS, SU.86.86 cells, 1/5X
Sequence (P02786 whole entry G142S): as above

Binder | MFI [MFI]
B1 | 4600
B2 | 2940
B3 | 96

target: T1, human transferrin receptor expressed by …; test: FACS, PMN, donor D005, 1x
Experimental: as §1, §2

Binder | % positive cell binding [%]
B1 | < 1
B2 | 1
B3 | 1

target: T1, human transferrin receptor expressed by …; test: FACS, RBC, donor D016, 1/10x
Experimental: as §1, §2

Binder | % positive cell binding [%]
B1 | 1
B2 | 1
B3 | 1

target: T1, human transferrin receptor expressed by …; test: FACS, HUVEC, 1x
Experimental: as §1, §2

Binder | % positive cell binding [%]
B1 | 1
B2 | 1
B3 | 2

target: T1, human transferrin receptor expressed by …; test: FACS, lymphocytes, donor D005, 1x
Experimental: as §1, §2

Binder | % positive cell binding [%]
B1 | < 1
B2 | < 1
B3 | < 1

target: T1, human transferrin receptor expressed by …; test: FACS, lymphocytes, donor D102, 1/10x
Experimental: as §3, §2

Binder | % positive cell binding [%]
B1 | 2
B2 | 2
B3 | 1

target: T1, human transferrin receptor expressed by …; test: FACS, platelets, donor D016, 1/10x
Experimental: as §1, §2

Binder | % positive cell binding [%]
B1 | < 1
B2 | < 1
B3 | < 1

target: T1, human transferrin receptor expressed by …; test: FACS, PMN, donor D005, 1/10x
Experimental: as §3, §2

Binder | % positive cell binding [%]
B1 | < 1
B2 | < 1
B3 | 1

target: T1, human transferrin receptor expressed by …; test: FACS, RBC, donor D016, 1x
Experimental: as §1, §2

Binder | % positive cell binding [%]
B1 | 1
B2 | 1
B3 | 1

target: T1, human transferrin receptor expressed by …; test: FACS, PMN, donor D014, 1/10x
Experimental: as §3, §2

Binder | % positive cell binding [%]
B1 | < 1
B2 | < 1
B3 | < 1

target: T1, human transferrin receptor expressed by …; test: FACS, platelets, donor D014, 1x
Experimental: as §1, §2

Binder | % positive cell binding [%]
B1 | < 1
B2 | < 1
B3 | < 1

target: T1, human transferrin receptor expressed by …; test: FACS, monocytes, donor D005, 1/10x
Experimental: as §3, §2

Binder | % positive cell binding [%]
B1 | 4
B2 | 4
B3 | 3
